# Data taken from paper PMC4072592, “The EJC Binding and Dissociating Activity of PYM Is Regulated in Drosophila” (PLoS Genetics, 2014).
# T1: FL-PYM-GFP (S2 cells) (Drosophila, UniProt P82804 1-207)
# T1 construct: Drosophila PYM (wibg, CG30176), full length coding region amplified from ovarian cDNA; also called GFP-tagged FL-PYM; source: S2 cells, transiently transfected, in cytoplasmic extract; not shown: eGFP, C-terminal, kept
# T1 sequence (looked up): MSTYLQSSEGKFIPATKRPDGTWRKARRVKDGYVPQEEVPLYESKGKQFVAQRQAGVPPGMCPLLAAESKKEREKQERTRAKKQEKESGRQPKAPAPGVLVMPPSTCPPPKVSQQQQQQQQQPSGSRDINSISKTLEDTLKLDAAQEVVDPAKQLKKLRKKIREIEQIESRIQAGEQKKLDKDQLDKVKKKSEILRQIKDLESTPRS
# B1: Y14-Mago heterodimer, endogenous in S2 cells (complex)
# chain 1: not shown
# chain 2: not shown
# notes: Y14 (Tsunagi), Drosophila, endogenous; Mago nashi (Mago), Drosophila, endogenous; also called Mago and Y14; Mago-Y14; source: endogenous, cytoplasmic extract of Drosophila S2 cells
# Target: T1, FL-PYM-GFP (S2 cells)
# Assay: co-IP + cross-linking; as the native GFP-Trap IP from S2 cell extracts, but extracts cross-linked with 1 mM DSP for 1 h at 4°C before the IP; blots quantified by densitometry
# Settings: partners not purified
binder,measurement,value
B1,fold increase of binding upon DSP treatment against native,1.7 fold
